# In patent US20200216514A1, “Generalized Extracellular Molecule Sensor” (ETH ZURICH, priority 2019, published 2020):
# Substitutions are numbered along the chain they refer to. Numbers in names are those of the source.
# B1: JAK/STAT-GEMSRR120: PSV40-VHHA52-EpoRm-IL-6RBm-pA; optimized chimeric receptor (GEMS device) targeting RR120, JAK/STAT signaling (protein)
# chain: VQLQESGGGLVQAGDSLKLSCEASGDSIGTYVIGWFRQAPGKERIYLATIGRNLVGPSDFYTRYADSVKGRFAVSRDNAKNTVNLQMNSLKPEDTAVYYCAAKTTTWGGNDPNNWNYWGQGTQVTVSGEFAPSPSLPDPKFESKAALLASRGSEELLCFTQRLEDLVCFWEEAASSGMDFNYSFSYQLEGESRKSCSLHQAPTVRGSVRFWCSLPTADTSSAVPLELQVTEASGSPRYHRIIHINEVVLLDAPAGLLARRAEEGSHVVLRWLPPPGAPMTTHIRYEVDVSAGNRAGGTQRVEVLEGRTECVLSNLRGGTRYTFAVRARMAEPSFSGFWSAWSEPASLLTASDLDPLILTLSLILVLISLLLTVLALLSAAANKRDLIKKHIWPNVPDPSKSHIAQWSPHTPPRHNFNSKDQMYSDGNFTDVSVVEIEANDKKPFPEDLKSLDLFKKEKINTEGHSSGIGGSSCMSSSRPSISSSDENESSQNTSSTVQASTVVHSGYRHQVPSVQVFSRSESTQPLLDSEERPEDLQLVDHVDGGDGILPRQQYFKQNCSQHESSPDISHFERSKQVSSVNEEDFVRLKQQISDHISQSCGSGQMKMFQEVSAADAFGPGTEGQVERFETVGMEAATDEGMPKSYLPQTVRQGGYMPQ
# B2: pLeo618: PSV40-VHHA52-EpoR3A-IL-6RBm-pA; receptor with Y759A, without F93A modification (protein)
# chain: B1 chain with A222F
# B3: JAK/STAT-GEMSSunTag (pLeo620; scFvαGCN4-EpoRm-IL-6RBm) (receptor, part only; not given: Signal peptide and scFv-EpoR linker, part only)
# chain, part: DIVMTQSPSSLSASVGDRVTITCRSSTGAVTTSNYASWVQEKPGKLFKGLIGGTNNRAPGVPSRFSGSLIGDKATLTISSLQPEDFATYFCALWYSNHWVFGQGTKVELKRGGGGSGGGGSGGGGSSGGGSEVKLLESGGGLVQPGGSLKLSCAVSGFSLTDYGVNWVRQAPGRGLEWIGVIWGDGITDYNSALKDRFIISKDNGKNTVYLQMSKVRSDDTALYYCVTGLFDYWGQGTLVTVSAPSPSLPDPKFESKAALLASRGSEELLCFTQRLEDLVCFWEEAASSGMDFNYSFSYQLEGESRKSCSLHQAPTVRGSVRFWCSLPTADTSSAVPLELQVTEASGSPRYHRIIHINEVVLLDAPAGLLARRAEEGSHVVLRWLPPPGAPMTTHIRYEVDVSAGNRAGGTQRVEVLEGRTECVLSNLRGGTRYTFAVRARMAEPSFSGFWSAWSEPASLLTASDLDPLILTLSLILVLISLLLTVLALLSAAANKRDLIKKHIWPNVPDPSKSHIAQWSPHTPPRHNFNSKDQMYSDGNFTDVSVVEIEANDKKPFPEDLKSLDLFKKEKINTEGHSSGIGGSSCMSSSRPSISSSDENESSQNTSSTVQASTVVHSGYRHQVPSVQVFSRSESTQPLLDSEERPEDLQLVDHVDGGDGILPRQQYFKQNCSQHESSPDISHFERSKQVSSVNEEDFVRLKQQISDHISQSCGSGQMKMFQEVSAADAFGPGTEGQVERFETVGMEAATDEGMPKSYLPQTVRQGGYMPQ
# Key:
# [1] = test system: WEN1.3 cells; assay: Endogenous IL-10 secretion (ELISA) in WEN1.3 hybridoma cells; format: cell-based; settings: for Fold change (IL-10 concentration in supernatant): 0 ng vs. 100 ng RR120/mL, 24 h
# Description: WEN1.3 cells (See Pogson M et al., Nat. Commun., 2016, 7:12535) were cultivated in DMEM (52100039, Thermo Fisher) supplemented with 10% (v/v) heat-inactivated FBS (F7524, lot BCBS0318V, Sigma-Aldrich), 1% (v/v) streptomycin/penicillin (L0022, Biowest), 10 mM HEPES buffer (Ser. No. 15/630,056, Thermo Fisher), and […] 2-mercaptoethanol (M3148, Sigma-Aldrich) in a humidified atmosphere of 5% CO2 in air at 37° C. Cells were transfected by electroporation with program CQ-104 of the 4D-Nucleofector System (Lonza) and the SF Cell Line 4D-Nucleofector X Kit L (V4XC-2024, Lonza).
# For each transfection 1×10^6 cells were washed twice by centrifugation for 5 min at 90 g and then resuspended in 1 mL of Opti-MEM I Reduced Serum Medium (31985062, Thermo Fisher); after washing, the cells were resuspended in 100 μL Lonza SF buffer containing 0.5 μg sleeping beauty transposase expression plasmid (pCMV(CAT)T7-SB100) and 9.5 μg of a plasmid for stable integration and expression of JAK/STAT-GEMS (pLeo695) or MAPK-GEMS (pLeo694). After pulsing, 500 μL prewarmed culture medium was added for 10 min. Cells were transferred to 1 mL culture media in 24-well plates (142475, Thermo Fisher) and were grown for 48 h. For creating stable cell lines, cells were transferred to 3 mL culture media in 6-well plates (140675, Thermo Fisher) and were selected with 5 μg/mL puromycin (ANT-PR-1, InvivoGen) for 14 d. For experiments, cells were centrifuged for 5 min at 90 g and resuspended in culture media (with or without RR120) to give a concentration of 1×10^6 cells/mL, and then 500 μL of the cell suspension was transferred per well of a 48-well plate. IL-10 ELISAs (900-TM53, PeproTech) were performed 24 h after induction.
# [2] = cited from earlier work
# [3] = test system: JAK/STAT signaling through STAT3; assay: C-STAR caffeine-inducible STAT3 SEAP reporter assay in HEK-293T cells; format: cell-based, human; settings: 1 μM concentration; C-STARDB1 cells; FIG. 22
# Description: All cells were cultured in a humidified atmosphere containing 5% CO2 at 37° C.
# [4] = test system: JAK/STAT signaling (STAT3 reporter); assay: GEMS STAT3-responsive SEAP reporter assay in HEK-293T cells; format: cell-based, human; settings: for Fold change (SEAP reporter): 24 h induction; for Response to erythropoietin: FIG. 5B, with / without F93A modification of EpoR
# Description: (§1) Human embryonic kidney cells (HEK-293T, American Type Culture Collection (ATCC): CRL-11268) were cultivated in Dulbecco's modified Eagle's medium (DMEM; 52100039, Thermo Fisher) supplemented with 10% (v/v) FBS (F7524, lot BCBS0318V, Sigma-Aldrich) and 1% (v/v) streptomycin/penicillin (L0022, Biowest) in a humidified atmosphere of 5% CO2 in air at 37° C. For experiments, 1.5×10^6 cells in 12 mL DMEM were seeded into 96-well plates (167008, Thermo Fisher) 24 h before transfection. The transfection mix in each well consisted of 125-130 ng of plasmid DNA mixed with 50 μL FBS and antibiotics-free DMEM and 600 ng of polyethyleneimine (24765-1, Polysciences, Inc.). The transfection mix was prepared separately, incubated for 20 min and then added to the cells for overnight transfection. In the morning, medium with the transfection mix was exchanged for 130 μL/well medium with different concentrations of the appropriate inducer or no inducer as a negative control. Reporter output was measured 24 h after induction for all experiments. Plasmid amounts used for transfections per set of six wells of a 96-well plate were as follows:
# FIG. 3B; FIG. 4B: 5 ng for each receptor subunit or as indicated in the figure, 150 ng STAT3 reporter plasmid (pLS13), 25 ng STAT3 expression vector (pLS15) and […] (or the appropriate amount to make a total of 775 ng) of a plasmid without mammalian promoter (pDF145).
# (§2) FIGS. 5A-C; FIG. 6A; FIG. 8; FIG. 9; FIGS. 10A-B; FIGS. 11A-C; FIG. 12; FIGS. 13A-B: 600 ng of receptor plasmids (for heterodimeric receptors 300 ng of each subunit) and for STAT readout 150 ng of a STAT3 reporter plasmid (pLS13) and 25 ng of a STAT3 expression vector (pLS15); for MAPK-readout 75 ng of a TetR reporter plasmid (pMF111) and 100 ng of a TetR-Elk1 fusion expression vector (MKp37); for NFAT readout 175 ng of a NFAT reporter plasmid (pHY30) and for NF-κB readout 175 ng of a NF-κB reporter plasmid (pKR32).
# SEAP concentrations in cell culture supernatants were quantified in terms of absorbance increase due to hydrolysis of para-nitrophenyl phosphate (pNPP). 80 μL of heat-inactivated (30 min at 65° C., then centrifuged for 1 min, 3,220 g) supernatant was mixed in a 96-well dish with 100 μL of 2×SEAP buffer (20 mM homoarginine, 1 mM MgCl2, 21% (v/v) diethanolamine, pH 9.8) and 20 μL of substrate solution containing 20 mM pNPP (Acros Organics BVBA). Samples were measured at 405 nm with a Tecan Genios PRO multiplate reader (Tecan AG) or an EnVision 2104 multilabel reader (PerkinElmer). SEAP production in vivo was quantified with the chemiluminescence SEAP reporter gene assay (cat. no. 11779842001, Sigma-Aldrich) according to the manufacturer's instructions.
# [5] = test system: NFAT, STAT3 and MAPK signaling; assay: GEMS pathway crosstalk reporters (FIG. 13A-B) in HEK-293T cells; format: cell-based, human
# Description: as §1, with “In the morning, medium with the transfection mix was exchanged for 130 μL/well medium with different concentrations of the appropriate inducer or no inducer as a negative control.” left out, “Plasmid amounts used for transfections per set of six wells of a 96-well plate were as follows:” left out
# as §2, with “(pKR32). […]” for “(pKR32).”
# [6] = molecular target: SunTag8×-mCherry fusion protein; assay: cell-based or functional assay
molecule,measurement,setting,value
"O=S(=O)(O)c1cc(Nc2nc(Cl)nc(Nc3ccc(Nc4nc(Cl)nc(Nc5cc(S(=O)(=O)O)cc6cc(S(=O)(=O)O)c(N=Nc7ccccc7S(=O)(=O)O)c(O)c56)n4)cc3)n2)c2c(O)c(N=Nc3ccccc3S(=O)(=O)O)c(S(=O)(=O)O)cc2c1 [RR120, reactive red 120, reference compound]",Fold change (IL-10 concentration in supernatant),[1]; WT WEN1.3 cells (no receptor),1.1 fold
Cn1c(=O)c2c(ncn2C)n(C)c1=O [caffeine],Half-life of caffeine in human blood,[2],approximately five
Cn1c(=O)c2[nH]cnc2n(C)c1=O [theophylline],Cross-activation of C-STAR by caffeine analogs,[3],modest cross-activation
B1,Fold change (SEAP reporter),[4]; 0 ng vs. 1 ng RR120/mL,5.4 fold
same,Fold change (SEAP reporter),[4]; 0 ng vs. 100 ng RR120/mL,45 fold
same,Response to erythropoietin,[4],induced with RR120 but not with erythropoietin
same,Ratio of induced versus noninduced SEAP secretion (signal-to-noise ratio),"[4]; RR120 as inducer, FIG. 5C",over 40 fold
same,IL-10 secretion upon GEMS activation by RR120,[1]; FIG. 14,substantially increased IL-10 secretion
same,Fold change (IL-10 concentration in supernatant),[1]; stable polyclonal WEN1.3 cell line expressing the receptor,1.5 fold
same,Crosstalk to other signaling pathways,[5],cancelled the interference with MAPK signaling
B2,Response to erythropoietin,[4],respond strongly to erythropoietin
B3,"Fold change of MAPK reporter (NanoLuc), 0% vs. 0.002 % (v/v) bacterial lysate (SunTag), cells co-transfected with MAPK-GEMSRR120 (Y677F), FIG. 13C",[6],1.3 fold
same,"Fold change of SEAP, 0 % vs. 0.002 % (v/v) bacterial lysate (SunTag), FIG. 10A",[6],6.9 fold
same,"Fold change of SEAP, 0 % vs. 0.02 % (v/v) bacterial lysate (SunTag), FIG. 10A",[6],30 fold
same,"Fold change of STAT3 reporter (SEAP), 0% vs. 0.002 % (v/v) bacterial lysate (SunTag), cells co-transfected with MAPK-GEMSRR120 (Y677F), FIG. 13C",[6],12.9 fold
same,"Fold change of STAT3 reporter (SEAP), no inducer vs. 100 ng RR120/mL + 0.002 % (v/v) bacterial lysate (SunTag), cells co-transfected with MAPK-GEMSRR120 (Y677F), FIG. 13C",[6],14.9 fold
